The values that follow are results of earlier work, collected in patent publication US20080113011A1, “Compositions and methods for enhanced mucosal delivery of interferon beta” (Nastech Pharmaceutical Company Inc., priority 2002, published 2008).

The conditions of this series: anesthetized rats.

Where two headings read alike, the source gives them in different places.

As to “human growth hormone: human growth hormone given nasally to anesthetized rats with or without N-acetyl-L-cysteine”, the nasal bioavailability reads like this: (with N-acetyl-L-cysteine (ACS)) 12.2%; (without N-acetyl-L-cysteine) 7.5%.
